Assay results from US20230295308A1, “ANTAGONISTIC BIPARATOPIC ANTIBODIES THAT SPECIFICALLY BIND FIBROBLAST GROWTH FACTOR RECEPTOR 2 AND METHODS OF USING SAME” (The Broad Institute, Inc., priority 2020, published 2023).
Entries after “also recorded” stand apart in the source; their conditions may differ.

Assays:
[1] = test system: BaF3 cells expressing wild-type FGFR2IIIb; assay: ligand-induced (FGF10) growth of BaF3 cells expressing FGFR2IIIb (FIG. 8); assay type: cell-based
Experimental: FIG. 8 is a schematic (described at FIG. 7A) and a graph showing the growth of BaF3 cells expressing FGFR2IIIb when treated with FGF10. Anti-FGFR2 antibodies blocked ligand-dependent stimulation of BaF3 cells expressing wild-type FGFR2b. FGFR2b is an isoform of FGFR2 that is predominantly expressed in cholangiocarcinoma.
Antibodies A-F were tested to determine whether they could inhibit the ligand-induced growth of BaF3 cells expressing FGFR2IIIb. Antibodies C, D, and E, which bind FGFR2 Ig-2 and Ig-3, were effective in blocking ligand-induced growth of BaF3 cells expressing wild-type FGFR2IIIb (FIG. 8). The effects of antibodies A-F were then tested on BaF3 cells expressing FGFR2-PHDGH fusions. […] Antibody F inhibited the FGFR2-PHDGH activating fusion in BaF3 cells (FIG. 9).

[2] = test system: FGFR2-PHDGH fusion expressing BaF3 cells; assay: ligand stimulated (FGF10) growth of FGFR2-PHGDH fusion expressing BaF3 cells (FIG. 10); assay type: cell-based; conditions: FGF10 present
Experimental: FIG. 10 is a graph showing that antibodies C, D, E and F have activity against ligand stimulated growth of FGFR2-PHDGH fusion expressing BaF3 cells.
The growth of BaF3 cells expressing an FGFR2-PHDGH fusion was assayed in the presence of FGF ligand, FGF10. Antibodies C, D, E and F inhibited ligand stimulated growth of FGFR2-PHDGH fusion expressing BaF3 cells (FIG. 10). Based on the results reported herein above, antagonistic biparatopic antibodies are made using the FGFR2 antibody combinations shown in FIG. 11A. These combinations result in increased growth inhibition effects in oncogenic or cancer cells (e.g., transformed BaF3 cells) that overexpressed […]. Thus, antibodies that bind to epitopes have increased inhibitory and killing effects against cancer cells. Designs for antagonistic biparatopic antibodies are shown at FIGS. 11B and 11C. Advantageously, including complementary mutations in VH-VL and CH1-CL on one-half of the biparatopic antibody results in preferential heterodimeric pairing between two different chains rather than chains from the other half of the same antibody. Alternatively, a linker method is used to create scFab, scFv, or DuoBodies. In this method two antibody chains are each generated in different cells and mixed in vitro. Such methods are known in the art and described, for example, by K. Ding et al, March 2017, Appl. Microbiol. […]

FGFR2b alpha IIIb = FGFR2b alpha IIIb (Homo sapiens, UniProt P21802); assay: Surface Plasmon Resonance (SPR) binding; conditions: FGFR2b alpha IIIb antigen
FGFR2b alpha IIIb, sequence (P21802 22-378 isoform P21802-3): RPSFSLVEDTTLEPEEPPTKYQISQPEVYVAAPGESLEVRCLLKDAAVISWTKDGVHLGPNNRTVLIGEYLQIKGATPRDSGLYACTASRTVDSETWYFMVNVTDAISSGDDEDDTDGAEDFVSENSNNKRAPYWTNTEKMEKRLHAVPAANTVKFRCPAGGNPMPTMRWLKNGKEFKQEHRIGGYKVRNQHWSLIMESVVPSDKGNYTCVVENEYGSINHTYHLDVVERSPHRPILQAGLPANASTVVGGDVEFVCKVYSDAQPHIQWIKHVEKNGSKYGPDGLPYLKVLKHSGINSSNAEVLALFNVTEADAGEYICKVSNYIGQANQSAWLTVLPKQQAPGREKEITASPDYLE
Text: FIGS. 17A-17C provide a schematic and tabular data related to assessments made to compare the avidity of biparatopic antibodies to that of their parental (bivalent monospecific) antibodies.
Surface Plasmon Resonance (SPR) as known in the art was used to determine the binding affinities of biparatopic antibodies. The SPR-based binding method involves immobilization of a ligand (antibody) on the surface of a sensor chip. The binding partner of interest or an analyte (FGFR2 ECD) flow through the flow channel. Different concentrations of an analyte flow over the ligand, and the interactions of ligand-analyte can be characterized. The SPR signal originates from changes in the refractive index of the […] at the surface of the sensor chip. The increase in mass associated with a binding event causes a proportional increase in the refractive index, which is observed as a change in response-resonance signal. In brief, for the experiments using the antibodies described herein, the SPR assay was carried out by immobilizing antibodies (used as […]) at a concentration ranging from 1-1000 nM and flow-through FGFR2b alpha IIIb antigen (used as […]). The antibody kinetic data for the interaction with FGFR2b alpha IIb antigen were fitted to the 2-state and 1-1 binding models using Biocore software. The mean and standard deviation KD values are derived from at least three independent runs.
Using SPR, the kinetics of 6 monospecific and 13 biparatopic antibodies for binding to a single antigen, FGFR2b alpha IIb, was measured so as to compare avidity of the biparatopic antibodies to their parental antibodies. Without wishing to be bound by theory, it was expected that the biparatopic antibodies would bind to the FGFR2 antigen more tightly than their parental antibodies and that the tighter binding biparatopic antibodies among the antibodies that were assessed would be more efficient in blocking FGFR2 dimerization (FIG. 17A), thereby leading to inhibition or blocking of constitutive FGFR2 signaling and/or oncogenic transformation. […]

[3] = molecular target: FGFR2 on SNU-16 gastric cancer cell line with FGFR2 amplification (UniProt P21802); assay: FACS on SNU-16 cells, % No. of cells with FITC+
[4] = molecular target: FGFR2 on SNU-16 gastric cancer cell line with FGFR2 amplification (UniProt P21802); assay: FACS on SNU-16 cells, % cells with FITC+ against log antibody concentration; Kd printed in the legend box [cont.]

Kd (FGFR2b alpha IIIb): 0.99 nM
EC50 (read off the curve) [3]: 0.3 µg/mL
Kd [4]: 1.78 nM
B1: 2B 1.3.12 (antibody, V domains shown)
VH: EVQLVESGGGLVQPGGSLRLSCAASGFPFTSTGISWVRQAPGKGLEWVGRTHLGDGSTNYADSVKGRFTISADTSKNTAYLQMNSLRAEDTAVYYCARTYGIYDTYDMYTEYVMDYWGQGTLVTVSS
VL: DIQMTQSPSSLSASVGDRVTITCRASQDVDTSLAWYKQKPGKAPKLLIYSASFLYSGVPSRFSGSGSGTDFTLTISSLQPEDFATYYCQQSTGHPQTFGQGTKVEIK
notes: the duobody scheme implies IgG1 with K409R or F405L; also called Antibody D; GE
blocking ligand-induced growth of BaF3 cells expressing wild-type FGFR2IIIb [1]: effective
inhibition of ligand stimulated growth of FGFR2-PHGDH fusion expressing BaF3 cells [2]: have activity; also recorded: inhibited
